In US12617856B2, “Protease-cleavable substrates and methods of use thereof” (CytomX Therapeutics, Inc., priority 2022, dated 2026):
Starred links: 1 amine or outer side, 2 acyl side, 3 side chain; linkers in the order of their positions; H or OH if unused. No end group written: not given here. *: point of attachment. K(DNP) = O=C([C@H](CCCCNc1ccc([N+](=O)[O-])cc1[N+](=O)[O-])N[*:1])[*:2]; Mca = COc1ccc2c(CC(=O)*)cc(=O)oc2c1

Key:
Type in all cases: biochemical
MMP2 = target: T1, MMP2 (Homo sapiens, UniProt P08253); experiment: Peptide probe cleavage assay (internally quenched MCA/DNP probes) with MMP2; settings: 20 μM internally quenched peptide probe, 20 nM protease, 37° C.
T1 sequence (P08253 110-660): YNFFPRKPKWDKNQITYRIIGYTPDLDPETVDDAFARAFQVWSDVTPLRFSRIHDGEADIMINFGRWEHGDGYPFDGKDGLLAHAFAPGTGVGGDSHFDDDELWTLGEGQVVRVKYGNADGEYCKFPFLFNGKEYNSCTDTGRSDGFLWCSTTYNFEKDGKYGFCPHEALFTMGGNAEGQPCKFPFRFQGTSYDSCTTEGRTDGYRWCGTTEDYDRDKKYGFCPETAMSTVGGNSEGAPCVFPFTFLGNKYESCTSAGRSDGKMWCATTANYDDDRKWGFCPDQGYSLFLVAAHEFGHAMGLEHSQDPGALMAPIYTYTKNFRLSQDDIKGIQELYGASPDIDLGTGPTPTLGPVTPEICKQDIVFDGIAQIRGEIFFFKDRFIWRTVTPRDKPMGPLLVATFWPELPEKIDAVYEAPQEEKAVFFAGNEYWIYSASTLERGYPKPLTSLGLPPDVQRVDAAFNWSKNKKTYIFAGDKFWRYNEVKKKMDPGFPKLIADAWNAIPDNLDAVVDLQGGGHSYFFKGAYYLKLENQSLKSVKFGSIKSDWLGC

MMP9 = MMP9 (Homo sapiens, UniProt P14780); experiment: Peptide probe cleavage assay (internally quenched MCA/DNP probes) with MMP9; settings: 20 μM internally quenched peptide probe, 20 nM protease, 37° C.
[1] = target: urokinase-type plasminogen activator (uPA) (Homo sapiens, UniProt P00749); experiment: Peptide probe cleavage assay (internally quenched MCA/DNP probes) with uPA; settings: 20 μM internally quenched peptide probe, 20 nM protease, 37° C.; — = below limit of quantification
[2] = target: T2, membrane type serine protease 1 (MT-SP1) (Homo sapiens, UniProt Q9Y5Y6); experiment: Peptide probe cleavage assay (internally quenched MCA/DNP probes) with MT-SP1; settings: 20 μM internally quenched peptide probe, 20 nM protease, 37° C.
T2 sequence (Q9Y5Y6 1-855): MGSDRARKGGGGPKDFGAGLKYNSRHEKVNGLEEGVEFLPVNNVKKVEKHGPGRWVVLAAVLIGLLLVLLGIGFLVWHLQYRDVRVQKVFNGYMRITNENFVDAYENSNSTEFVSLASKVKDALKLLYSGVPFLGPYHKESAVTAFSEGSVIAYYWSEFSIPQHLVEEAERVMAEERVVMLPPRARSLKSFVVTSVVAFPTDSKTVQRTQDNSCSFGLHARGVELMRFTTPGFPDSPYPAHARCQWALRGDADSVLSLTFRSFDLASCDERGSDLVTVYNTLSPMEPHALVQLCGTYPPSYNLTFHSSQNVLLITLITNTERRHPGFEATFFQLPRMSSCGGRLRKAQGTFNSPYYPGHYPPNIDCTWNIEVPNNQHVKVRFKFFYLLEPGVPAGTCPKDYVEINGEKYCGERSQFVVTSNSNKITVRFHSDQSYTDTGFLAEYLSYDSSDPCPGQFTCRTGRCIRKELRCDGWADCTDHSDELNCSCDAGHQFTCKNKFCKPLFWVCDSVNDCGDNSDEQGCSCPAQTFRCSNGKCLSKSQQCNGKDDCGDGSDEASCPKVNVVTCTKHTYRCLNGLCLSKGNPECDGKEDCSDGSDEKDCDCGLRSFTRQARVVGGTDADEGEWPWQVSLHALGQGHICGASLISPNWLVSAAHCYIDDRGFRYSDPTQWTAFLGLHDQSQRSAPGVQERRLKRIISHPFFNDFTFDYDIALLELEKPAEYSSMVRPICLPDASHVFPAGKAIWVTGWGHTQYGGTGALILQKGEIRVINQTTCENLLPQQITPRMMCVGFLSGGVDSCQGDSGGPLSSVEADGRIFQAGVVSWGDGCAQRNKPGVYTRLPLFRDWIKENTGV

MMP14 = MMP14 (Homo sapiens, UniProt P50281); experiment: Peptide probe cleavage assay (internally quenched MCA/DNP probes) with MMP14; settings: 20 μM internally quenched peptide probe, 20 nM protease, 37° C.; — = below limit of quantification

Sequence of MMP9 (P14780 94-707): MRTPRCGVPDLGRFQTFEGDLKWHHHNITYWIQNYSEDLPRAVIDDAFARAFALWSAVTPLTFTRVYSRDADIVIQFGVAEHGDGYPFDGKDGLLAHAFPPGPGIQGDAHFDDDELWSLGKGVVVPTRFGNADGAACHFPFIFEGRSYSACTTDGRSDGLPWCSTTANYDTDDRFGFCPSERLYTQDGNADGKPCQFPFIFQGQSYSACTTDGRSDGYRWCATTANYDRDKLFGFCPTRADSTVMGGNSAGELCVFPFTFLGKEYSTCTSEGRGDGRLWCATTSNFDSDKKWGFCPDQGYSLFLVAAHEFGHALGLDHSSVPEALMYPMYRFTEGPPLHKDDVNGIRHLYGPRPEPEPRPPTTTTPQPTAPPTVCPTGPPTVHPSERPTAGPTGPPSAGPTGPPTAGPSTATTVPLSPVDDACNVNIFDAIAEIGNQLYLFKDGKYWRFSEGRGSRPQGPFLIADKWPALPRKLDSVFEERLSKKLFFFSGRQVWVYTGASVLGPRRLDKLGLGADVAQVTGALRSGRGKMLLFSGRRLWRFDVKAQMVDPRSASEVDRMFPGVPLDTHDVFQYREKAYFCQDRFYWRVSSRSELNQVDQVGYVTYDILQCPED

Row | Probe Cleavage (pM/s) MMP2 (MMP2) [pM/s] | Probe Cleavage (pM/s) MMP9 (MMP9) [pM/s] | Probe Cleavage (pM/s) uPA [1] [pM/s] | Probe Cleavage (pM/s) MT-SP1 [2] [pM/s] | Probe Cleavage (pM/s) MMP14 (MMP14) [pM/s] | Substance
1 |  |  | 48.3 |  |  | (MCA)-Ser-Pro-Trp-Gly-Leu-Ser-Gly-Arg-Gly-Ser-Lys (DNP)-D-Arg (Mca-SPWGLSGRGS-{K(DNP)-dR}; SMILES COc1ccc2c(CC(=O)N[C@@H](CO)C(=O)N3CCC[C@H]3C(=O)N[C@@H](Cc3c[nH]c4ccccc34)C(=O)NCC(=O)N[C@@H](CC(C)C)C(=O)N[C@@H](CO)C(=O)NCC(=O)N[C@@H](CCCNC(=N)N)C(=O)NCC(=O)N[C@@H](CO)C(=O)N[C@@H](CCCCNc3ccc([N+](=O)[O-])cc3[N+](=O)[O-])C(=O)N[C@H](CCCNC(=N)N)C(=O)O)cc(=O)oc2c1) [CM PWGLSGR]
2 | 816 |  |  |  | 224 | CM AWGLSGRS: internally quenched MCA/DNP probe SEQ ID NO: 699 with one residue replaced by Ala, CM AWGLSGRS (SEQ ID NO: 686) (not fully specified (N-terminus, C-terminus); also: MCA/DNP internal quench labels, places not given here)
3 | 202 | 456 |  |  | 29.7 | CM PWGASGRS: internally quenched MCA/DNP probe SEQ ID NO: 699 with one residue replaced by Ala, CM PWGASGRS (SEQ ID NO: 689) (not fully specified (N-terminus, C-terminus); also: MCA/DNP internal quench labels, places not given here)
4 |  |  | 1.80 | 13.0 |  | CM PWGLSGAS: internally quenched MCA/DNP probe SEQ ID NO: 699 with one residue replaced by Ala, CM PWGLSGAS (SEQ ID NO: 692) (not fully specified (N-terminus, C-terminus); also: MCA/DNP internal quench labels, places not given here)
5 |  |  | 380 |  |  | CM PWGLSGRA: internally quenched MCA/DNP probe SEQ ID NO: 699 with one residue replaced by Ala, CM PWGLSGRA (SEQ ID NO: 693) (not fully specified (N-terminus, C-terminus); also: MCA/DNP internal quench labels, places not given here)

Further lines, the substance ahead of its results:

Row | Substance | Probe Cleavage (pM/s) MMP2 (MMP2) [pM/s] | Probe Cleavage (pM/s) MMP9 (MMP9) [pM/s] | Probe Cleavage (pM/s) uPA [1] [pM/s] | Probe Cleavage (pM/s) MT-SP1 [2] [pM/s] | Probe Cleavage (pM/s) MMP14 (MMP14) [pM/s]
6 | (MCA)-Gly-Ser-Trp-Gly-Leu-Ser-Gly-Arg-Ser-Gly-Lys (DNP)-D-Arg (Mca-GSWGLSGRSG-{K(DNP)-dR}; SMILES COc1ccc2c(CC(=O)NCC(=O)N[C@@H](CO)C(=O)N[C@@H](Cc3c[nH]c4ccccc34)C(=O)NCC(=O)N[C@@H](CC(C)C)C(=O)N[C@@H](CO)C(=O)NCC(=O)N[C@@H](CCCNC(=N)N)C(=O)N[C@@H](CO)C(=O)NCC(=O)N[C@@H](CCCCNc3ccc([N+](=O)[O-])cc3[N+](=O)[O-])C(=O)N[C@H](CCCNC(=N)N)C(=O)O)cc(=O)oc2c1) [CM WGLSGRS] | 66.4 | 581 |  |  | 
7 | (MCA)-Ser-Pro-Trp-Gly-Leu-Ser-Gly-Gly-Gly-Ser-Lys (DNP)-D-Arg (Mca-SPWGLSGGGS-{K(DNP)-dR}; SMILES COc1ccc2c(CC(=O)N[C@@H](CO)C(=O)N3CCC[C@H]3C(=O)N[C@@H](Cc3c[nH]c4ccccc34)C(=O)NCC(=O)N[C@@H](CC(C)C)C(=O)N[C@@H](CO)C(=O)NCC(=O)NCC(=O)NCC(=O)N[C@@H](CO)C(=O)N[C@@H](CCCCNc3ccc([N+](=O)[O-])cc3[N+](=O)[O-])C(=O)N[C@H](CCCNC(=N)N)C(=O)O)cc(=O)oc2c1) [CM PWGLSG] |  |  | 12.9 | 5.10 | 
8 | CM LSGRSPAGL: internally quenched MCA/DNP probe of design SEQ ID NO: 703, X1 Arg, X2 Ala, CM LSGRSPAGL (SEQ ID NO: 694) (also: MCA/DNP internal quench labels, places not given here) |  |  |  |  | 190
9 | CM PWGLAGRS: internally quenched MCA/DNP probe SEQ ID NO: 699 with one residue replaced by Ala, CM PWGLAGRS (SEQ ID NO: 690) (not fully specified (N-terminus, C-terminus); also: MCA/DNP internal quench labels, places not given here) |  |  | 126 |  | 
10 | CM PWGLRS: internally quenched MCA/DNP peptide probe of design SEQ ID NO: 698, CM PWGLRS (SEQ ID NO: 48) (also: MCA/DNP internal quench labels, places not given here) | 3800 | 3830 |  | 1230 | 4380
11 | CM RSPWGL: internally quenched MCA/DNP peptide probe of design SEQ ID NO: 698, CM RSPWGL (SEQ ID NO: 90) (also: MCA/DNP internal quench labels, places not given here) | 11700 | 25500 | 3210 | 2390 | 9580
